Among the data in the Human Domainome abundance scans (Beltran et al. 2025) are abundance fitness values, retold here.

± gives the uncertainty stated by the source.

The data set in a line: abundance fitness (aPCA) (normalised: wild type 0, dead -1); higher = more abundant; growth selection in yeast, the domain comes from the species named. The note with it: Homo sapiens.
Take “DnaJ homolog subfamily B member 1 G10C, P25685”: the abundance fitness was -0.587 ± 0.26.

For “DnaJ homolog subfamily B member 1 G10D, P25685”, the abundance fitness was -0.141 ± 0.074.

Take “DnaJ homolog subfamily B member 1 G10E, P25685”: the abundance fitness turned out to be 0.073 ± 0.2.

For “DnaJ homolog subfamily B member 1 G10F, P25685”, the abundance fitness was -0.542 ± 0.13.

In the case of “DnaJ homolog subfamily B member 1 G10H, P25685”, the abundance fitness was -0.378 ± 0.14.

“DnaJ homolog subfamily B member 1 G10I, P25685” showed an abundance fitness of -0.756 ± 0.19.

On to “DnaJ homolog subfamily B member 1 G10K, P25685”, for which the abundance fitness was -0.108 ± 0.1.

Substance “DnaJ homolog subfamily B member 1 G10L, P25685” came in with an abundance fitness of -0.223 ± 0.058.

In turn, “DnaJ homolog subfamily B member 1 G10M, P25685” showed an abundance fitness of -0.191 ± 0.085.

As for “DnaJ homolog subfamily B member 1 G10N, P25685”, the abundance fitness is -0.333 ± 0.25.

For the substance “DnaJ homolog subfamily B member 1 G10P, P25685”, the abundance fitness is -0.926 ± 0.21.

Turning to “DnaJ homolog subfamily B member 1 G10Q, P25685”, the abundance fitness is -0.048 ± 0.083.

In turn, “DnaJ homolog subfamily B member 1 G10R, P25685” yielded an abundance fitness of -0.239 ± 0.066.

Consider “DnaJ homolog subfamily B member 1 G10S, P25685”, for which the abundance fitness was -0.163 ± 0.061.

Take “DnaJ homolog subfamily B member 1 G10T, P25685”: the abundance fitness was -0.564 ± 0.16.

In turn, “DnaJ homolog subfamily B member 1 G10V, P25685” came in with an abundance fitness of -0.606 ± 0.087.

With “DnaJ homolog subfamily B member 1 G10W, P25685”, the abundance fitness is -0.704 ± 0.12.

With “DnaJ homolog subfamily B member 1 G10Y, P25685”, the abundance fitness is -0.658 ± 0.12.

“DnaJ homolog subfamily B member 1 G14A, P25685” had an abundance fitness of -0.353 ± 0.13.

“DnaJ homolog subfamily B member 1 G14C, P25685” displayed an abundance fitness of -0.266 ± 0.12.

For the substance “DnaJ homolog subfamily B member 1 G14E, P25685”, the abundance fitness was -0.192 ± 0.078.

As to “DnaJ homolog subfamily B member 1 G14F, P25685”, the abundance fitness is -0.446 ± 0.2.

“DnaJ homolog subfamily B member 1 G14H, P25685” yielded an abundance fitness of -0.133 ± 0.24.

In turn, “DnaJ homolog subfamily B member 1 G14I, P25685” yielded an abundance fitness of -0.235 ± 0.12.

Take “DnaJ homolog subfamily B member 1 G14K, P25685”: the abundance fitness is -0.13 ± 0.093.

“DnaJ homolog subfamily B member 1 G14L, P25685” showed an abundance fitness of -0.266 ± 0.074.

The substance “DnaJ homolog subfamily B member 1 G14M, P25685” returned an abundance fitness of -0.385 ± 0.096.

For “DnaJ homolog subfamily B member 1 G14N, P25685”, the abundance fitness is -0.232 ± 0.15.

Consider “DnaJ homolog subfamily B member 1 G14P, P25685”, for which the abundance fitness was -0.347 ± 0.12.

For “DnaJ homolog subfamily B member 1 G14Q, P25685”, the abundance fitness was -0.251 ± 0.091.

Turning to “DnaJ homolog subfamily B member 1 G14R, P25685”, the abundance fitness is -0.274 ± 0.056.

Take “DnaJ homolog subfamily B member 1 G14S, P25685”: the abundance fitness is -0.126 ± 0.042.

Substance “DnaJ homolog subfamily B member 1 G14T, P25685” returned an abundance fitness of -0.072 ± 0.092.

“DnaJ homolog subfamily B member 1 G14V, P25685” gave an abundance fitness of -0.241 ± 0.11.

The substance “DnaJ homolog subfamily B member 1 G14Y, P25685” registered an abundance fitness of -0.378 ± 0.32.

With “DnaJ homolog subfamily B member 1 G40A, P25685”, the abundance fitness was -0.128 ± 0.1.

Consider “DnaJ homolog subfamily B member 1 G40C, P25685”, for which the abundance fitness was -0.113 ± 0.16.

“DnaJ homolog subfamily B member 1 G40D, P25685” showed an abundance fitness of -0.301 ± 0.078.

Regarding “DnaJ homolog subfamily B member 1 G40E, P25685”, the abundance fitness is -0.194 ± 0.1.

With “DnaJ homolog subfamily B member 1 G40F, P25685”, the abundance fitness is -0.049 ± 0.13.

For “DnaJ homolog subfamily B member 1 G40H, P25685”, the abundance fitness is -0.131 ± 0.15.

Consider “DnaJ homolog subfamily B member 1 G40I, P25685”, for which the abundance fitness was -0.026 ± 0.13.

Take “DnaJ homolog subfamily B member 1 G40K, P25685”: the abundance fitness came to 0.005 ± 0.15.

Regarding “DnaJ homolog subfamily B member 1 G40L, P25685”, the abundance fitness is -0.188 ± 0.1.

Consider “DnaJ homolog subfamily B member 1 G40M, P25685”, for which the abundance fitness was -0.14 ± 0.1.

“DnaJ homolog subfamily B member 1 G40N, P25685” registered an abundance fitness of -0.173 ± 0.18.

For “DnaJ homolog subfamily B member 1 G40P, P25685”, the abundance fitness was -0.248 ± 0.12.

Take “DnaJ homolog subfamily B member 1 G40Q, P25685”: the abundance fitness was -0.103 ± 0.14.

Turning to “DnaJ homolog subfamily B member 1 G40R, P25685”, the abundance fitness was -0.041 ± 0.088.

The substance “DnaJ homolog subfamily B member 1 G40S, P25685” came in with an abundance fitness of -0.195 ± 0.086.

In turn, “DnaJ homolog subfamily B member 1 G40V, P25685” came in with an abundance fitness of -0.133 ± 0.079.

Substance “DnaJ homolog subfamily B member 1 G40Y, P25685” registered an abundance fitness of -0.182 ± 0.15.

For the substance “DnaJ homolog subfamily B member 1 H32A, P25685”, the abundance fitness is -0.154 ± 0.16.

Substance “DnaJ homolog subfamily B member 1 H32C, P25685” had an abundance fitness of -0.106 ± 0.14.

In turn, “DnaJ homolog subfamily B member 1 H32D, P25685” gave an abundance fitness of -0.241 ± 0.23.

For “DnaJ homolog subfamily B member 1 H32E, P25685”, the abundance fitness was 0.035 ± 0.091.

For “DnaJ homolog subfamily B member 1 H32F, P25685”, the abundance fitness was -0.139 ± 0.16.

Regarding “DnaJ homolog subfamily B member 1 H32G, P25685”, the abundance fitness was -0.007 ± 0.072.

“DnaJ homolog subfamily B member 1 H32I, P25685”: the abundance fitness is -0.246 ± 0.12.

The substance “DnaJ homolog subfamily B member 1 H32K, P25685” registered an abundance fitness of -0.777 ± 0.16.

Substance “DnaJ homolog subfamily B member 1 H32L, P25685” yielded an abundance fitness of -0.025 ± 0.082.

In turn, “DnaJ homolog subfamily B member 1 H32M, P25685” gave an abundance fitness of 0.014 ± 0.089.

“DnaJ homolog subfamily B member 1 H32N, P25685” had an abundance fitness of 0.017 ± 0.15.

The substance “DnaJ homolog subfamily B member 1 H32P, P25685” displayed an abundance fitness of -0.199 ± 0.14.

In turn, “DnaJ homolog subfamily B member 1 H32R, P25685” registered an abundance fitness of -0.057 ± 0.061.

Take “DnaJ homolog subfamily B member 1 H32S, P25685”: the abundance fitness amounted to 0.05 ± 0.073.

The substance “DnaJ homolog subfamily B member 1 H32T, P25685” returned an abundance fitness of -0.048 ± 0.072.

In the case of “DnaJ homolog subfamily B member 1 H32W, P25685”, the abundance fitness is -0.155 ± 0.075.

“DnaJ homolog subfamily B member 1 H32Y, P25685”: the abundance fitness was -0.192 ± 0.21.

In turn, “DnaJ homolog subfamily B member 1 I20A, P25685” yielded an abundance fitness of -0.63 ± 0.092.

“DnaJ homolog subfamily B member 1 I20C, P25685”: the abundance fitness is -0.431 ± 0.079.

Take “DnaJ homolog subfamily B member 1 I20D, P25685”: the abundance fitness is -0.766 ± 0.17.

With “DnaJ homolog subfamily B member 1 I20E, P25685”, the abundance fitness was -0.956 ± 0.15.

For the substance “DnaJ homolog subfamily B member 1 I20F, P25685”, the abundance fitness was -0.708 ± 0.1.

“DnaJ homolog subfamily B member 1 I20G, P25685”: the abundance fitness is -0.9 ± 0.071.

Consider “DnaJ homolog subfamily B member 1 I20H, P25685”, for which the abundance fitness was -0.948 ± 0.13.

“DnaJ homolog subfamily B member 1 I20K, P25685” gave an abundance fitness of -0.86 ± 0.087.

With “DnaJ homolog subfamily B member 1 I20L, P25685”, the abundance fitness was -0.143 ± 0.076.

The substance “DnaJ homolog subfamily B member 1 I20M, P25685” registered an abundance fitness of -0.575 ± 0.12.

In turn, “DnaJ homolog subfamily B member 1 I20N, P25685” came in with an abundance fitness of -1.02 ± 0.11.

Regarding “DnaJ homolog subfamily B member 1 I20P, P25685”, the abundance fitness is -1.26 ± 0.17.

In the case of “DnaJ homolog subfamily B member 1 I20Q, P25685”, the abundance fitness is -0.759 ± 0.13.

For the substance “DnaJ homolog subfamily B member 1 I20R, P25685”, the abundance fitness was -0.832 ± 0.06.

With “DnaJ homolog subfamily B member 1 I20S, P25685”, the abundance fitness is -0.782 ± 0.061.

Consider “DnaJ homolog subfamily B member 1 I20W, P25685”, for which the abundance fitness was -1.42 ± 0.12.

“DnaJ homolog subfamily B member 1 I48A, P25685” came in with an abundance fitness of -0.108 ± 0.079.

Substance “DnaJ homolog subfamily B member 1 I48C, P25685” returned an abundance fitness of -0.073 ± 0.11.

On to “DnaJ homolog subfamily B member 1 I48D, P25685”, for which the abundance fitness is -0.667 ± 0.12.

Turning to “DnaJ homolog subfamily B member 1 I48E, P25685”, the abundance fitness was -0.697 ± 0.095.

Regarding “DnaJ homolog subfamily B member 1 I48F, P25685”, the abundance fitness is -0.41 ± 0.13.

Substance “DnaJ homolog subfamily B member 1 I48G, P25685” displayed an abundance fitness of -0.615 ± 0.065.
